Measurements reported in PMC12285722, “M6A-dependent RNA condensation underlies FUS autoregulation and can be harnessed for ALS therapy development”.

Target: FUS (recombinant, His-tagged) (human, UniProt P35637 1-526)
Test: EMSA; 250 nM RNA, 0-7.5 uM FUS (Methods: 7.0); EMSA: 50 mM Tris-HCl pH 7.5, 100 mM KCl, 2 mM MgCl2, 100 mM beta-mercaptoethanol, 0.1 mg/ml BSA, 30 min RT, 6% native gel in TBE; CONA: lysate in 1% Triton X-100/PBS, beads washed in 20 mM Hepes pH 7.5, 0.3 M NaCl, 0.01% Triton X-100, 5 mM MgCl2, 2 h RT
Conditions: protein: recombinant; tags: His; label: 5' Cy5; 3' biotin-TEG

FUS (recombinant, His-tagged), sequence (P35637 whole entry): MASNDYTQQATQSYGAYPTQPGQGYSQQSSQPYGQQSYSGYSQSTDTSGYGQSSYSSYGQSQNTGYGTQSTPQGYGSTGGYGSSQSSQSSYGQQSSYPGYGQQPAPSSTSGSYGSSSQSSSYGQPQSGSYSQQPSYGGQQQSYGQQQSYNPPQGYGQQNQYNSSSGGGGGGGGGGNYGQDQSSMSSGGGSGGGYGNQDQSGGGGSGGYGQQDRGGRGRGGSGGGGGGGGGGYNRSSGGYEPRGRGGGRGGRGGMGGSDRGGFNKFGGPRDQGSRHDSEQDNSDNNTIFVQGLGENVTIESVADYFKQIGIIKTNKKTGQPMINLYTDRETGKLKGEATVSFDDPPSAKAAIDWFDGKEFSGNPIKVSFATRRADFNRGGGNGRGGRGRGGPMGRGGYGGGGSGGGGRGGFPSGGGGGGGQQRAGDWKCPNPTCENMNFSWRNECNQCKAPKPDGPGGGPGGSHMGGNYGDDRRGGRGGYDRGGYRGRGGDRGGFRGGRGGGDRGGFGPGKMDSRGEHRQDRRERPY

GGACUCGGACUUGGACUCUGGACUUUG (ssRNA) [4xDRACH]: binds.
